One may read the Kd as the free concentration of one partner at which half of the binding sites on the other are occupied at equilibrium, for simple one-to-one binding. Read a high Kd as a looser complex.

Drawing on publication PMC10213792 (Acta Pharmaceutica Sinica. B, 2023), this text covers Kd for three molecules.

To fix the notation:
B1: His-tagged SepFc (N-terminal truncated version of SepF, amino acids 115-203) (domain or fragment)
chain: EMTRPRFGSWLRNSTRGALAMDPRRMAMMFEDGHPLSKITTLRPKDYSEARTIGERFRDGSPVIMDLVSMDNADAKRLVDFAAGLAFAL

The star is where a group is joined. FITC = O=C1OC2(c3ccc(O)cc3Oc3cc(O)ccc32)c2ccc(NC(=S)*)cc21

The target in one test is SepF (Mycobacterium tuberculosis, UniProt P9WGJ5). Briefly: SPR. Format: binding.
In the next test the target is T1, His-tagged FtsZ (M. tuberculosis H37Rv, UniProt P9WN95 1-379).
T1 sequence: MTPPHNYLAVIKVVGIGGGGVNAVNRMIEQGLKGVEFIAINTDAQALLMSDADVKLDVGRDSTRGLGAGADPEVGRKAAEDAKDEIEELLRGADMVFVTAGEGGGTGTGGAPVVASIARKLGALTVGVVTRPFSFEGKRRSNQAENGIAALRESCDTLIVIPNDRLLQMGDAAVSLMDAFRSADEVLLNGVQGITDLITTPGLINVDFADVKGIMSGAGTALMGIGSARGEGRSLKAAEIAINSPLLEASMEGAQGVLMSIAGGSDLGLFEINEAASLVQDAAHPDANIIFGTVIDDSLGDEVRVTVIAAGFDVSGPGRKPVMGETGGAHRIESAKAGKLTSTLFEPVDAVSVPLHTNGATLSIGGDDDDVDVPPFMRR
Briefly: SPR.

Test [1] has as its target B1. Briefly: fluorescence polarisation.

Sequence of SepF (P9WGJ5 115-203): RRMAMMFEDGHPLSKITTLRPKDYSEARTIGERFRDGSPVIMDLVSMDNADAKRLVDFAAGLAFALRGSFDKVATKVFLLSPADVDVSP

`OC(COc1ccc2ccccc2c1)CN1CCCN(CC(O)COc2ccc3ccccc3c2)CC1` (stereo not drawn) [T0349, 1-{4-[2-hydroxy-3-(naphthalen-2-yloxy)propyl]-1,4-diazepan-1-yl}-3-(naphthalen-2-yloxy) propan-2-ol]: binding on SepF was characterised by a dissociation constant (Kd) of 46.8 µM.
B1: the affinity with His-tagged FtsZ, expressed as Kd, was 5.16 µM.
In the case of {FITC}-SIGGDDDDVDVPPFMRR-OH [FITC-FtsZ (FITC-SIGGDDDDVDVPPFMRR-OH, 363-379 amino acids of the full-length FtsZ)], in test [1], the dissociation constant Kd worked out at 0.0186 µM.
